This is an account of results in paper PMC4198210.

For the test, the target named is phosphorylated PhoP-His (recombinant N-terminal His-tag PhoP protein of Photorhabdus luminescens TT01, phosphorylated in vitro with acetyl phosphate) (Photorhabdus luminescens TT01). Nature of the test: Mn2+-Phos-tag SDS-PAGE; 4 ug purified PhoP-His incubated in vitro with 50 mM acetyl phosphate (lane 2) or without (lane 1) in the EMSA buffer; precast 12.5% polyacrylamide Mn2+-Phos-tag gel run at 4°C and 150 V; Coomassie stain.

As for “phosphorylated PhoP-His (recombinant N-terminal His-tag PhoP protein of Photorhabdus luminescens TT01, phosphorylated in vitro with acetyl phosphate) (natural protein)”, the stoichiometry N was determined as 2.
